For this data set, the target named is T1, phiC31 integrase WT (Streptomyces phage phiC31, UniProt Q38194 1-613).
T1 sequence: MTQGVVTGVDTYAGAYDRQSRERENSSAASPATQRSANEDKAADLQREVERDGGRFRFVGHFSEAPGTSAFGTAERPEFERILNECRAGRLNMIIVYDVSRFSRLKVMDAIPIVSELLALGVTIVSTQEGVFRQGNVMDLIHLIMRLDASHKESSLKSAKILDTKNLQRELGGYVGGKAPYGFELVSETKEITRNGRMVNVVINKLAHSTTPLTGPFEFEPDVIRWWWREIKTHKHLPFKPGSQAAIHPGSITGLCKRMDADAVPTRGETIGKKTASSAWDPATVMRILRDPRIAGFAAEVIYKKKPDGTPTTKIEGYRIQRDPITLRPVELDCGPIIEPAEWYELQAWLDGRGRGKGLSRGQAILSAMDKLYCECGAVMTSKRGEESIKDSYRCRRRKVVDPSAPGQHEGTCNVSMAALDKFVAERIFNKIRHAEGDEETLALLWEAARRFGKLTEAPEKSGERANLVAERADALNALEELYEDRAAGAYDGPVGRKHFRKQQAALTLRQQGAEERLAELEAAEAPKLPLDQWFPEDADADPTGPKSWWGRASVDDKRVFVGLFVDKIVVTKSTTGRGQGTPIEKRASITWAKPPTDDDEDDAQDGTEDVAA
Nature of the data set: EMSA; complexes I, II, III; reference; competed by excess cold attB; 50 ng/ul Poly (competitor (so in the source)), 0.05% NP-40, 50 mM KCl, 5 mM MgCl2, 10 mM EDTA, 20 ul, 0.4 ng (16 fmol) probe; 30 min at room temperature (Methods) or 30 C; pH not stated; synapsis 2 h at 30 C. The note with it: protein: recombinant; tags: C-terminal His (pET22b); chain copies: 2; label: biotin, double-strand end-labeled; blunt.

B1: attB 41 bp (dsDNA)
DNA 1: CGGGTGCCAGGGCGTGCCCTTGGGCTCCCCGGGCGCGTACT
DNA 2: AGTACGCGCCCGGGGAGCCCAAGGGCACGCCCTGGCACCCG
Turning to B1, the binding signal was 100 % of WT.

The record behind these values is PMC2810336, “Mutational Analysis of Highly Conserved Residues in the Phage PhiC31 Integrase Reveals Key Amino Acids Necessary for the DNA Recombination”.
